Laboratory results as given in patent publication KR20200132110A (dated 2020).

Assays:
[1] = target: CD71 (on cancer stem cells and cancer cell lines) (UniProt P02786 1-760, limits assumed); assay: cell-based or functional assay
[2] = target: T1, CTLA-4 (UniProt P16410 36-161, limits assumed); assay: ELISA, 100 nM coated protein
T1 construct: Negative control; The construct is not described
T1 sequence (looked up): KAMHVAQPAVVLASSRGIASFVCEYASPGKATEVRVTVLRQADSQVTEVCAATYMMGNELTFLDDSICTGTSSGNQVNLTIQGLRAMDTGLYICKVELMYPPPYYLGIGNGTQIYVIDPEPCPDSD

[3] = target: T2, BSA (UniProt P02769 25-607); assay: ELISA, 100 nM coated protein
T2 construct: Negative control
T2 sequence (P02769 25-607 limits assumed): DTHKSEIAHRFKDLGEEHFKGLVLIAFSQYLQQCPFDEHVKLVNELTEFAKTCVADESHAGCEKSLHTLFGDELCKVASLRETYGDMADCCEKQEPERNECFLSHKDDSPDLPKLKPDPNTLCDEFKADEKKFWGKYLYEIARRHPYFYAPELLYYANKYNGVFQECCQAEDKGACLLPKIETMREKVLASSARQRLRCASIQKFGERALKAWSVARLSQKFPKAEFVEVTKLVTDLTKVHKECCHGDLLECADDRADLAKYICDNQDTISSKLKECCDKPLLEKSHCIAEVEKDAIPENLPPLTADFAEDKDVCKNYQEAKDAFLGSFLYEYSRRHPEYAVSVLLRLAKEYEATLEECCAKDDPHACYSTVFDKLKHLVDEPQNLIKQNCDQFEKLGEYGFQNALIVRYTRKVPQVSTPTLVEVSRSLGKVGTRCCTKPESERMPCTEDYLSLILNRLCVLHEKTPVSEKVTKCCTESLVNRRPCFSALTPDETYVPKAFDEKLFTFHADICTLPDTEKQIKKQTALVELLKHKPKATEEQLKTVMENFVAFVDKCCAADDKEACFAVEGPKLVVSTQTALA

Chain of CD71 (on cancer stem cells and cancer cell lines) (P02786 whole entry): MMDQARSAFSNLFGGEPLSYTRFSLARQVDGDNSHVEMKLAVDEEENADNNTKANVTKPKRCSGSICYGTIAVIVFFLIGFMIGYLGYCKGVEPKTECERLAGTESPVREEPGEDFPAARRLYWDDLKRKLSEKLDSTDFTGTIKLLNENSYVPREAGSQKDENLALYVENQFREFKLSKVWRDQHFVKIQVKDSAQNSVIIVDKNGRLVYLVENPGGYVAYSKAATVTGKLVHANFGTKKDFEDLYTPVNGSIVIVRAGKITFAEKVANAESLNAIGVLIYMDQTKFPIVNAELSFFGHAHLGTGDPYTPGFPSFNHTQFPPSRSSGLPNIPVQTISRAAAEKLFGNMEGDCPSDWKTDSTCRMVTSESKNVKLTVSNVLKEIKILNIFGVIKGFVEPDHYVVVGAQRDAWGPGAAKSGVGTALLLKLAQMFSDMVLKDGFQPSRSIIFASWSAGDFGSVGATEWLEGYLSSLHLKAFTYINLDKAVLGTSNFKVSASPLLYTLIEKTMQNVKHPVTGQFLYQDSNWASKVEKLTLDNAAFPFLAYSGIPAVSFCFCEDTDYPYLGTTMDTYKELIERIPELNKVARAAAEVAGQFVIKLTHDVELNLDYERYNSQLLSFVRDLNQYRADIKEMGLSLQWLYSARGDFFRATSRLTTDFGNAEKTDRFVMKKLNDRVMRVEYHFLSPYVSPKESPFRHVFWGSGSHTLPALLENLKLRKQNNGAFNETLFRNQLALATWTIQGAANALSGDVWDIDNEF

B1: 1E12 항체 (antibody, V domains shown)
VH: QMQLVQSGAEVKKPGASVKVSCKASGYIFTDYYMHWVRQAPGQGLEWMGGISPIFGTANYAQNFQGRVTITADESTTTAYMELSNLRSEDTAVYYCAKDGAGPEYYYYGLDVWGQGTSVTVSS
VL: QSALTQPPSVSGSPGQSVTISCTGTSSDIGGYNYVSWYQHHPGKAPKLVISEVTKRPSGVPGRFSGSKSGNTASLTVSGLQAEDEADYYCSSYSDSDNLLFGGGTKLTVLG
notes: also called b) 단클론 항체
With B1 the “EC50 세포성장 저해, parent암 세포주 (AlamarBlue)” value [1] was 18.3 nM, the “EC50 세포성장 저해, 암 줄기세포주 (AlamarBlue)” value [1] was 53.3 nM and the binding result [2] was “no binding (tested: 1μg/mL)”. B1: no binding (tested: 1μg/mL) [3].
